These results are taken from US20240218054A1 (MABLOC, published 2024).

Substitutions are numbered along the chain they refer to.

For the assay, the target named is T1, recombinant YFV E protein (soluble E, sE; YFV Asibi strain) (Yellow fever virus, Asibi strain, UniProt Q6DV88 286-678).
T1 construct: also called YFV E antigen; YFV E monomer
Nature of the assay: BLI monovalent (IgG on tip).

For orientation: Kd means the concentration at which binding is half-saturated.

T1 sequence (Q6DV88 286-678): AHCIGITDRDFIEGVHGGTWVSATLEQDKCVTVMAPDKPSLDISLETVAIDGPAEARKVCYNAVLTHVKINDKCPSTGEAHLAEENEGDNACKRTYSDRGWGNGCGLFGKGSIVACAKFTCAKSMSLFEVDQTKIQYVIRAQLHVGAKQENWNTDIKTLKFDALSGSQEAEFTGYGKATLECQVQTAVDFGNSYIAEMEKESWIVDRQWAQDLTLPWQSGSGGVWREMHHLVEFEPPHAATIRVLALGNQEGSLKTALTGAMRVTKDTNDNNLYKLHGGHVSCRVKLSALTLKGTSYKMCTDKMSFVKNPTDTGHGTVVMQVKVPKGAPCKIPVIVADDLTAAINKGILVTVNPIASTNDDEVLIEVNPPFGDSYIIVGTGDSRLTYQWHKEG

B1: ADI-49133 (antibody, V domains shown)
VH: EVQLLESGGGLVQPGGSLRLSCAASGFTFRNYAMNWVRQTPGKGLEWVSGISGGGDSTNYADSVKGRFTISRDNSRNTLYLQLNSLRAEDTAVYYCAKDLAVSTPRYWFDSWGQGTLVTVSS
VL: DIQMTQSPSSLSASVGDRVTITCRASQTISVDLNWYQHKPGKAPKLLIFAASTLQSGVPSRFSGSGSGTDFTLTIRSLQPEDFATYYCQQSYSIPRITFGQGTRLEIK
notes: full-length IgG; also called Antibody Number 6
B1: the Kd was 0.00691 µM.

B2: ADI-42211 (antibody, V domains shown)
VH: QVQLVESGGGVVQPGRSLRLSCGGSGFTFSSYGMHWVRQAPGKGLEWVAVISYDGSKKYSADSVKGRFTISRDNSKNTLYLQMNSLRAEDTAVYYCAKGSVSVAGAEDYWGQGTLVTVSS
VL: DIQMTQSPSSLSASVGDRVTITCRASQGISSYLAWFQQKPGKVPKLLIYAASTLQSGVPSRFSGSGSGTDFTLTISSLQPEDVATYYCQKYNSAPQTFGQGTKVDIK
notes: full-length IgG; also called Antibody Number 58
In the case of B2, the Kd is 0.00164 µM.

B3: ADI-45140 (antibody, V domains shown)
VH: EVQLLESGGGLVHPGGSLRLSCAASGFTFSDYEMNWVRQAPGKGLEWVSHISSSGNIIYYADSVKGRFTISRDNAKDSLYLQMNSLRAEDTAVYYCAATIFGVVSFDYWGQGTLVTVSS
VL: QSVLTQPPSVSAAPGQKVTISCSGSSSNIGNNYVSWYQQLPGTAPKVLIYDNNKRPSGIPDRFSGSKSGTSATLGITGLQTGDEADYYCGTWDSALGAAVFGGGTKLTVL
notes: full-length IgG; also called Antibody Number 61
On to B3, for which the dissociation constant Kd amounted to 0.0046 µM.

B4: ADI-46722 (antibody, V domains shown)
VH: EVQLVESGPGLVKPSGTLSLTCAVSGGSISSSNWWSWVRQPPGKGLEWIGEIYHSESTNYNPSLKSRVTISVDKSKNQFSLKLSSVTAADTAVYYCARDFWSGSNWFDPWGQGTLVTVSS
VL: QSALIQPPSVSAAPGQKVTISCSGSSSNIGNNYVSWYQQLPGTAPKLLIYDNNKRPSGIPDRFSGSKSGTSATLGITGLQTGDEADYYCGTWDNSLGVVFGGGTQLTVL
notes: full-length IgG; also called Antibody Number 71
As for B4, the Kd is > 0.1 µM.

B5: ADI-45148 (antibody, V domains shown)
VH: EVQLLESGGGLVQPGRSLRLSCAASGFTFDDYAMHWVRQAPGKGLEWVSGISWNSGSIGYADSVKGRFTISRDNAKNSLYLQMNSLRAEDTALYYCAKDIGDSYGSGSYYLPYGAYYGMDVWGQGTTVTVSS
VL: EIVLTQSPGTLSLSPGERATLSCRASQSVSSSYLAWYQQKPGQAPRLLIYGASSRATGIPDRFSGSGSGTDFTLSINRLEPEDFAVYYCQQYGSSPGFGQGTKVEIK
notes: full-length IgG; also called Antibody Number 72
Take B5: the Kd was > 0.1 µM.

B6: ADI-49145 (antibody, V domains shown)
VH: EVQLLESGGGLVQPGGSLRLSCAASGFIFSDYYMDWVRQTPGKGPEWVGRITNRPNSYTTEYAASVKGRFTISRDDSTNSLFLHMNSLKTEDTAVYYCTRITGDRYWYLDLWGRGTLVTVSS
VL: DIVLTQSPSSLSASVGDRVTITCRASQSINNYLNWYQQKPGKAPNLLIFGASTLQSGVPSRFTGSGSGTVFTLTISSLQRDDFVIYYCQQTYSASGSFGQGTKVEIK
notes: full-length IgG; also called Antibody Number 69
B6: the Kd was 0.00105 µM.

B7: ADI-42191 (antibody, V domains shown)
VH: EVQLVESGGGLVQPGGSLRLSCAASGFTFSDHYMDWVRQAPGKGLEWVGRTRNKPNSHTTEYAASVKGRFTISRDDSKNSLYLQMNSLQTEDTAVYYCARVYGGPDDYWGQGTLVTVSS
VL: EIVMTQSPSSLSASVGDRVTITCRASQSIRSYLNWYQQKPGKAPKLLIYAASSLQSGVPLRFSGSGSGTDFTLTISSLQPEDFATYYCQQSSITPPTFGQGTKLEIK
notes: full-length IgG; also called Antibody Number 67
Regarding B7, the Kd was found to be 0.00213 µM.

B8: ADI-46729 (antibody, V domains shown)
VH: EVQLVESGPGLVKPSQTLSLTCTVSGGSISSGSYYWSWIRQPAGKGLEWIGRIYTSGSTNYNPSLKSRVTMSVDTSKNQFSLKLSSVTAADTAVYYCARGWFGYSNYGLYYYYGMDVWGQGTTVTVSS
VL: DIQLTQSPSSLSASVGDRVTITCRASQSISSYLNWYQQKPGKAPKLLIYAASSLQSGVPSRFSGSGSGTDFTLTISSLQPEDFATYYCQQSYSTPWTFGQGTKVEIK
notes: full-length IgG; also called Antibody Number 70
B8: the Kd was > 0.1 µM.

B9: ADI-42154 (antibody, V domains shown)
VH: EVQLVQSGGGLVQPGGSLRLSCAASGFTFSTYWMSWVRQAPGKGLEWVANIKQDGSEKYYVDSVKGRFTISRDNAKNSLYLQMNSLRAEDTAVYYCARDISCISTSCYGGYYYYGMDVWGQGTTVTVSS
VL: not shown
notes: full-length IgG; also called Antibody Number 55
On to B9, for which the dissociation constant (Kd) was 0.164 µM.

B10: ADI-49033 (antibody, V domains shown)
VH: EVQLVESGGGLVQPGGSLRLSCAASGLIFRNYAMSWVRQAPGKGLEWVSSFSGSGGSAYYADSVKGRFTISRDNSKSTVYLQMNRLRVEDTAVYYCAKDMAVSVHRGWFDDWGQGTLVTVSS
VL: EIVMTQSPSALSASVRDRVTITCRASQSIGSDLNWYQQRPGKAPMLLIYAATGLQSGVPSRFSGSGSGTDFTLTISNLQPEDFATYYCQQSYSPPMYTFGQGTKVDIK
notes: full-length IgG; also called Antibody Number 7
With B10, the Kd came out at 0.018 µM.

B11: ADI-48913 (antibody, V domains shown)
VH: EVQLLESGPGLVKPSETLSLTCTVSGGSISSYYWSWIRQPAGKGLELIGRIYTSGSGNYNPSLKRRVTMSVDTSKNQISLRLNSVTAADTAVYYCARERGGYFTEPFDIWGQGTMVTVSS
VL: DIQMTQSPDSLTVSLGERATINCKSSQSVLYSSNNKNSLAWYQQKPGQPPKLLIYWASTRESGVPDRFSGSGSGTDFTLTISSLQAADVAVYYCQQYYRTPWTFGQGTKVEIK
notes: full-length IgG; also called Antibody Number 60
As to B11, the dissociation constant (Kd) turned out to be 0.186 µM.

B12: ADI-49161 (antibody, V domains shown)
VH: QVQLVQSGAEVKKPGASVKVSCKASGYTFNTYAMTWVRQAPGQGLEWMGWISTYNGNTVFGQKFQGRVTLSTDTSTSTAYMELRSLTSDDTAVYYCAREDDDYYSMDVWGQGTTVTVSS
VL: QPVLTQPASVSGSPGQSITISCTGTSTDVGGYNYVSWYQQYPGKAPKLIIYDVTNRPSGVSHRFSGSKSGNTASLTISGLQAEDEADYYCSSYTTTSLVIFGGGTKLTVL
notes: full-length IgG; also called Antibody Number 54
With B12, the Kd is 0.00181 µM.

B13: ADI-49040 (antibody, V domains shown)
VH: EVQLVESGGALVHPGGSLGLSCAASGFTFSDHYMDWVRQAPGKGLEWVGRIRNKPNSYATQYAASVKGRFTISRDDSKKSLYLQMNSLNTEDTAVYYCARVRDGEYDYWGQGTLVTVSS
VL: DIQMTQSPSTLSASVGDRVTITCRASQSISTWLAWYQLKPGKAPKLLIYKASNLQSGVPSRFSGSGSGTEFTLTISSLQPDDFATYYCQQYNSYSPWGQGTKLEIK
notes: full-length IgG; also called Antibody Number 74
B13: the Kd came to 0.000999 µM.

B14: ADI-48899 (antibody, V domains shown)
VH: EVQLVESGGGLVQPGGSLRLSCAASGFIYTNYAMYWVRQAPGKGLEWVSAISGSGGITYYADSVKGRFTISRDNSKNTLYLQMNSLRAEDKAVYYCAKDGVTTINGWFHFEYWGQGTLVTVSS
VL: DIQMTQSPSTLSASVGDRVTITCRASQSISSWLAWYQQKPGKAPKLLIYQASSLESGVPSRFSGSESGTEFTLTISSLQPDDFATYYCQQYNSFPFTFGPGTKVEIK
notes: full-length IgG; also called Antibody Number 68
Regarding B14, the Kd worked out at 0.434 µM.

B15: ADI-42199 (antibody, V domains shown)
VH: EVQLVESGGGLVQPGGSLRLSCAASGFTFSDHYMAWVRQAPGKGLEWVGRIRNKPNSYTTEYAASVKGRFTISRHDSENSLYLQMNSLKTEDTAVYYCCRESGEGFDPWGQGTLVTVSS
VL: SYELTQLPSVSVSPGQTARVTCSGDALQYVYWYQQKPGQAPVVVIYKDTERPSGIPERFSGSSSGTTVTLTITGVQAEDEADYYCQSADRSGSVIFGGGTKVTVL
notes: full-length IgG; also called Antibody Number 63
For the molecule B15, the Kd was determined as 0.0007 µM.

B16: ADI-48908 (antibody, V domains shown)
VH: EVQLLESGGGLVQPGRSLRLSCAVSGFTFAEYAMHWVRQAPGKGLEWVSSISWNSGRIGYVDSVRGRFTISRDNAKNSLYLQMNSLRVEDTAFYYCAKGYDSSGYYWADYWGQGTLVTVSS
VL: EIVMTQSPATLSVSPGERATLSCRASQSVSFNLAWYQQKPGQAPRLLISRASTRAAGVPARFSGSGSGTEFTLTISSLQSEDFAVYYCQQYNNWPPLTFGGGTKLEIK
notes: full-length IgG; also called Antibody Number 59
As to B16, the Kd was 0.00176 µM.

B17: ADI-42231 (antibody, V domains shown)
VH: QVQLVQSGAEVKKPGASVKVSCKASGYSFTTYGISWVRQAPGQGLEWMGWISGYSGDTNYAQKVQGRVTMTTDTSTSTAYMELRSLRSDDTAVYYCARDQSHGTFGGVIDSTTLFYYYGMDVWGQGTTVTVSS
VL: DIVMTQSPATLSLSPGERATLSCRASQSVSSYLAWYQQKPGQAPRLLIYDASNRATGIPARFSGSGSGTDFTLTISSLEPEDFAVYYCQQRSNWPSFGQGTKLEIK
notes: full-length IgG; also called Antibody Number 64
Consider B17, for which the Kd came out at 0.0421 µM.

B18: ADI-45085 (antibody, V domains shown)
VH: EVQLVESGGGLVQPGGSLRLSCAASGFTFSSYAMSWVRQAPGKGLEWVSTFSGRGGSTYYADFVKGRFTISRDNSKNTLYLQMNSLRAEDTAVYYCAKYYDSSGYYYFDYWGQGTLVTVSS
VL: DIQLTQSPSTLSASVGDRVTITCRASQSISTWLAWYQQKPGKAPKLLIYRASSLESGVPSRFSASGSGTEFTLSISSLQPDDFATYYCKQYNRNPYTFGQGTKVEIK
notes: full-length IgG; also called Antibody Number 57
Take B18: the Kd turned out to be 0.152 µM.

B19: ADI-50211 (antibody, V domains shown)
VH: EVQLVESGGGLVQPGGSLRLSCAASGFTFSAYAMSWVRQAPGRGLEWVSAISGSDRRIYYADSVKGRFSISRDNSKNTLYLQMSSLRAEDTAVYYCAKYYDSSGYYYLDYWGQGTLVTVSS
VL: B18 VL with I29V, T31S, K45R, A64G, S74T, T85A, K89Q, N94D
notes: full-length IgG; also called Antibody Number 62
Take B19: the Kd came out at 0.0208 µM.

B20: ADI-49168 (antibody, V domains shown)
VH: EVQLLESGGGLVQPGGSLRLSCAASGFTFSSYAMSWVRQATGRGLEWVSSIRSSGGRTEYADSVKGRFTISRDNSKNTLYLQMDSLRAEDTALYYCAKHYDSSGYYYEDYWGQGTLVTVSS
VL: DIVLTQSPSTLSASVGDRVTITCRASQSISDWLAWYQQKPGKAPGLLIYRASGLESGVPSRFSGSGSGTEFTLTISSLQPDDFATYYCHQYKDFPWTFGQGTKVDIK
notes: full-length IgG; also called Antibody Number 73
As for B20, the Kd stood at 0.0241 µM.

B21: ADI-42233 (antibody, V domains shown)
VH: EVQLVESGGGLVKPGGSLRLSCVASGFTFSRYSMNWVRQAPGKGLEWVSSISHSGRYIYYADSEKGRFTISRDNAKNSLYLQMNSLRAEDTAVYYCARDHYFDSSGDYLSYYYNGMDVWGQGTTVTVSS
VL: ETTLTQSPGTLSLSPGERATLSCRASRSVSGNYLAWYQQKPGQAPRLLIYAASSRATGIPDRFSGGGSGTHFTLTISRLEPEDFAVYYCQQYGSSPRAFGQGTKVEIK
notes: full-length IgG; also called Antibody Number 66
As for B21, the Kd was found to be 0.00298 µM.

B22: ADI-48916 (antibody, V domains shown)
VH: EVQLVESGGGVVQPGRSLRLSCAASGFTFSNSGMHWVRQAPGKGLEWVAVIWYDSRNQNYADSVKGRFTISRDNSKNTLFLQMNSLRAEDTAVYYCARDYYASGDGSIDYWGQGTLVTVSS
VL: DIQVTQSPSSLSASVGGRVTITCRASQGIRNDLGWYQRKPGKAPKRLIYAASSLQSGVPSRFSGSGSGTEFTLTISSLQPEDFATYYCLQHNSYPLTFGGGTKVDIK
notes: full-length IgG; also called Antibody Number 56
Turning to B22, the Kd is 0.393 µM.

B23: ADI-45164 (antibody, V domains shown)
VH: EVQLQESGPGLVKPSETLSLTCTVSGGSISSSSYYWGWIRQPPGKGLEWIGSIYYSGSTYYNPSLKSRVTISVDTSKNQFSLKLSSVTAADTAVYYCARGYCSSTSCFYYYYGMDVWGQGTTVTVSS
VL: not shown
notes: full-length IgG; also called Antibody Number 65
As to B23, the Kd was > 0.1 µM.
